The values that follow come from patent publication US20160296648A1.

In assay [1] the target is CD22 (human) (UniProt P20273). Kind of assay: flow cytometry on bone marrow blasts at inclusion.
Assay [2] addresses CD22 (human) (UniProt P20273). Kind of assay: flow cytometry on peripheral blood blasts at inclusion.
Assay [3] has as its target CD22 (human) (UniProt P20273). Kind of assay: flow cytometry, BM blasts at day 15 post-RAIT (FIG. 1A).
Assay [4] addresses CD22 (human) (UniProt P20273). Kind of assay: flow cytometry, normal BM B cells at day 90 post-RAIT (FIG. 1B).
The target of assay [5] is CD22 (human) (UniProt P20273). Kind of assay: flow cytometry on residual blasts of one non-responder after RAIT.
The target in assay [6] is CD22 (human) (UniProt P20273). Nature of the assay: flow cytometry on residual blasts of four non-responders after RAIT.
Assay [7] addresses CD22 (human) (UniProt P20273). Nature of the assay: flow cytometry on blasts after elimination of epratuzumab from the surface.
For assay [8], the target named is CD22 (human) (UniProt P20273). Nature of the assay: flow cytometry on residual blasts of three non-responders after RAIT (epratuzumab on the cells).
Assay [9] has as its target CD22 (human) (UniProt P20273). Nature of the assay: flow cytometry on BM blasts of a patient who had received epratuzumab (epratuzumab on the cells).
In assay [10] the target is CD22 (human) (UniProt P20273). Kind of assay: flow cytometry, normal BM B cells at day 180 post-RAIT (FIG. 1B), epratuzumab gone from the surface.

In assay [1], “SHCL-1 (anti-CD22 antibody clone, PE or PerCp-Cy5.5 conjugated, BD Biosciences)” showed a median % of CD22-SHCL-1 expression (bone marrow blasts) of 100%. In addition, the median % of CD22-SHCL-1 expression (peripheral blasts) in assay [2] is 100%. The % CD22 SHCL-1 blast expression in assay [3] turned out to be 100%. In addition, the % CD22 SHCL-1 expression (normal BM B cells) in assay [4] was found to be 100%. Also, the % positivity of residual blasts in assay [5] is 84%; in assay [6] it was 100%; in [8], 100%. Moreover, in assay [7], the % labeling of blasts was 100%. Further, the % of SHCL-1+ blasts in assay [9] is 100%. In addition, in [10], the % positive (normal BM B cells) amounted to 100%.
